Test results from patent US12714749B2, “Anti-CK8 antibody and exosome compositions, methods of making, and methods of treating” (PEAK WAY GROUP INC., priority 2022, dated 2026).
Like-named read-outs stand apart in the source and are kept apart here.

Key:
MCF-7/MX cells = assay: SRB method, sensitivity of cells to chemotherapy drugs; type: cell-based; details: Homo sapiens, MCF7/MX, read-out: IC50 of chemotherapy drug
Procedure: The SRB method was used to detect the sensitivity of cells to chemotherapy drugs: 800 μg/L mitoxantrone was added in the process of culturing MCF-7/MX cells to maintain drug resistance, and the drug administration stopped two weeks before experiment. 100 μg/mL CK8-1R5 monoclonal antibody and/or 100 μg/mL BCRP inhibitor KS176 (Bai Olette, product No.: M01428) were added into cell culture wells of MCF-7/MX cells, and the culture medium was added for blank control. After 24 hours of culture, digestive cells were inoculated into a 96-well plate, with 2000 cells/well, and 3 double wells. The cells were continued to be cultured for 24 h until complete adherence. After adding different concentrations of chemotherapy drugs (mitoxantrone, topotecan, and daunorubicin) to act for 48 h, the culture was terminated. 50 IA of pre-cooled 50% (mass/volume) trichloroacetic acid was added into each well for immobilizing cells, and the culture plate was transferred into a refrigerator at 4° C. after standing for 1 h; the culture plate was taken, each well was washed with deionized water 5 times to remove TCA, and then dried in air; after complete drying, 100 μl of 0.4% SRB prepared with 1% acetic acid was added into each well and stained for 30 min at room temperature, and then the solution in each well was discarded; the well was washed 5 times using 1% acetic acid to remove unbound dye, and dried in air; 150 μl of 10 mM Tris alkaline solution with pH 10.5 was used for dissolving the sample in each well, the sample was oscillated for 5 min on a flat oscillator, and the absorbance of each well at 490 nm was measured on a BioRad microplate reader. The IC50 value was calculated using Prism software.

MCF7/MX cells = assay: Tumor growth in mice subcutaneously inoculated with MCF7/MX cells; type: in vivo; details: after 14 days of administration; FIG. 4
Procedure: MCF-7 was selected as a source cell of a tumor exosome, and the culture medium was DMEM with 10% Fetal bovine serum. After being transferred to a cell incubator (37° C. constant temperature, volume fraction, 5% CO2) for 48 h, the supernatant of tumor cells was collected and gradient centrifuged (2000×g, centrifuge, 20 min, 10000×g, centrifuge for 30 min) to remove cell debris, large vesicles were removed using a 0.22 μm filter; the filtrate was centrifuged for 70 min at 100000×g, the supernatant was discarded and then resuspended with 100 μL of DPBS at the bottom of a centrifuge tube, and the exosomes were recovered and stored at […] in refrigerator for future use. […]
After the inguinal areas of mice were subcutaneously inoculated with 5×10^5 MCF7/MX cells for 7 d, tumor bearing mice were randomly divided into 5 groups according to random number table: blank control group, exosome group loaded with erythromycin, exosome group loaded with CK8-1R5 monoclonal antibody combined with erythromycin, CK8-1R5 monoclonal antibody group, and erythromycin group. […] After 14 days of the first administration, the mice were euthanized and the tumor volume=short diameter^2×Long diameter/2 was measured[…].

CK8 protein [1] = target: T1, CK8 protein (Homo sapiens, UniProt P05787); assay: Binding ability test (antibody on aminopropyl sensor, spectral phase difference); details: fit from binding and dissociation phase difference; read-out: affinity for CK8 protein
T1 construct: made in house; host or cells: E. coli BL21 (DE3), vector pET-28a(+)
T1 sequence (P05787 1-483): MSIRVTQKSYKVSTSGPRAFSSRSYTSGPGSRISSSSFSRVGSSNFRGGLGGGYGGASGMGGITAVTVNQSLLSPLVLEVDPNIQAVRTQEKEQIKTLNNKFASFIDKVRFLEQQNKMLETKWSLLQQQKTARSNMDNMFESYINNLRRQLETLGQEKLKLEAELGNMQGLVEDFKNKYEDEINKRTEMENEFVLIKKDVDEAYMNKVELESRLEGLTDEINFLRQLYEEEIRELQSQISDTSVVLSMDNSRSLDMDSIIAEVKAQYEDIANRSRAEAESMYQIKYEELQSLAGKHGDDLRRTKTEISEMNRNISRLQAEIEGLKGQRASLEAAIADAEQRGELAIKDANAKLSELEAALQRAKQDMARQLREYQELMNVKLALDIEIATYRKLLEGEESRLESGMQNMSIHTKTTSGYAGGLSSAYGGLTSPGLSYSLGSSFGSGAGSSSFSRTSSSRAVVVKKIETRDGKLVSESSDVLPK
Procedure: Binding ability test: 1 mg of CK8-1R5 monoclonal antibody was taken and dispersed into 1 mL of PBS buffer solution; the prepared antibody dispersion was immobilized on an aminopropyl sensor, the sensor immobilized with the antibody was balanced in PBS buffer and then interact with different concentrations of CK8 protein solutions respectively, and then the spectral phase difference caused by CK8 protein binding to the antibody was recorded. After binding equilibrium, the sensor was placed in PBS buffer, the spectral phase difference caused by protein dissociation from the antibody was recorded, and the antibody's affinity to the protein was fit based on the phase difference.

CK8 protein [2] = target: T1, CK8 protein; assay: Specificity identification by ELISA; type: binding; details: plate coated with CK8 protein, MCF7 cell lysate, BSA, Escherichia coli lysate, NIH3T3 lysate; FIG. 3
Procedure: Specificity identification: each 1 μg of CK8 protein, MCF7 cell lysate, BSA, Escherichia coli lysate and mouse fibroblast NIH3T3 lysate was used to coat the ELISA plate, with PBS wells as blank control. After washing with PBS, 2.5% skimmed milk was added and the plate was sealed at room temperature for 1 h. After washing with PBS, 1:10 diluted cell culture supernatant (monoclonal antibody, primary antibody) was added, the plate was incubated at 37° C. for 1 and washed with 0.05% PBST 3 times, 1:2000 diluted HRP labeled sheep anti-mouse IgG (second antibody) was added, washed after incubation at 37° C. for 1 h, a developing agent ABTS was added, and the absorbance (A) value at 405 nm wavelength was read on the microplate reader.

CK8 protein [3] = target: T1, CK8 protein; assay: Indirect ELISA titer of monoclonal antibody; type: binding
Procedure: The titer of monoclonal antibodies was determined using an indirect ELISA method. An ELIASA plate (100 μl/well) was coated with […] of purified recombinant CK8 protein overnight at 4° C., and sealed for 1 h at 10% BSA room temperature. Different concentrations of CK8-1R5 monoclonal antibodies subjected to multiple dilution were added respectively, and incubated at 37° C. for 1 h. After washing 3 times with 0.05% PBST, HRP labeled sheep anti-mouse IgG with a dilution of 1:2000 was added, and the obtained mixture was incubated at 37° C. for 1 h and then washed. A developing agent ABTS was added, and the absorbance (A) value at a wavelength of 405 nm was read on microplate reader. Simultaneously, SP2/0 myeloma cell culture supernatant was used as negative control. The highest dilution ratio of the sample that produces a positive reaction was used as its potency.

[4] = MCF-7/MX cells without inhibitor, drug 48 h

## COc1cccc2c1C(=O)c1c(O)c3c(c(O)c1C2=O)C[C@@](O)(C(C)=O)C[C@@H]3O[C@H]1C[C@H](N)[C@H](O)[C@H](C)O1 [Daunorubicin, daunorubicin]
MCF-7/MX cells; 48 h
  IC50: 0.431 ± 0.0102 µM

## O=C1c2c(O)ccc(O)c2C(=O)c2c(NCCNCCO)ccc(NCCNCCO)c21 [Mitoxantrone, mitoxantrone]
MCF-7/MX cells; [4]
  IC50: 25 ± 1.35 µM

## CC[C@@]1(O)C(=O)OCc2c1cc1n(c2=O)Cc2cc3c(CN(C)C)c(O)ccc3nc2-1 [Topotecan, topotecan]
MCF-7/MX cells; [4]
  IC50: 18 ± 1.34 µM

B1: CK8-1R5: mouse monoclonal antibody (IgG1) specifically binding to CK8; heavy chain variable region SEQ ID NO: 1, light chain SEQ ID NO: 2 (antibody, V domains shown)
VH: EVQLVESGGGLVQPGGSLRLSCAASGFSLSIPYIYWVRQAPGKGLEWVGAQGCGNFYLGWFGVMSRFTISKDNSKNTLYLQMNSLRAEDTAVYYCARFYGMVEIEHVEDVWGQGTLVTVSS
VL: AYQMTQSPSSVSASVGDRVTITCVQPKPHPMCRKWYQQKPGKAPKLLIYMQKDQDNGVPSRFSGSGSGTDFTLTISSLQPEDFATYYCFFPRSRTVCDPKEFGGGTKVEIK
modifications: Glu Val Gln Leu Val Glu Ser Gly Gly Gly Leu Val Gln Pro Gly Gly Ser Leu Arg Leu Ser Cys Ala Ala Ser Gly Phe Ser Leu Ser Ile Pro Tyr Ile Tyr Trp Val Arg Gln Ala Pro Gly Lys Gly Leu Glu Trp Val Gly Ala Gln Gly Cys Gly Asn Phe Tyr Leu Gly Trp Phe Gly Val Met; The amino acid sequence of the present application is artificially synthesized
MCF7/MX cells
  tumor volume difference versus blank control group: no statistically significant difference (P>0.05)
CK8 protein [1]
  Kd: 0.00633 µM
CK8 protein [2]
  specificity of binding: only binds to CK8 protein or MCF7 cell lysate expressing the CK8 protein
CK8 protein [3]; antibody dilution 1:400
  absorbance (A) value at 405 nm: 1.679
CK8 protein [3]; antibody dilution 1:800
  absorbance (A) value at 405 nm: 1.136
CK8 protein [3]; antibody dilution 1:1600
  absorbance (A) value at 405 nm: 0.821
CK8 protein [3]; antibody dilution 1:3200
  absorbance (A) value at 405 nm: 0.596
CK8 protein [3]; antibody dilution 1:6400
  absorbance (A) value at 405 nm: 0.284
